Measurements reported in publication PMC2707180 (Nature structural & molecular biology, 2008).
Positions count from the first letter of the chain named. Names may count otherwise.

B1: GST-tagged C-terminal fragment of Prp8 (1806-2413 aa) (domain or fragment)
chain: MKANPALYVLRERIRKGLQIYQSSVQEPFLNSSNYAELFNNDIKLFVDDTNVYRVTVHKTFEGNVATKAINGCIFTLNPKTGHLFLKIIHTSVWAGQKRLSQLAKWKTAEEVSALVRSLPKEEQPKQIIVTRKAMLDPLEVHMLDFPNIAIRPTELRLPFSAAMSIDKLSDVVMKATEPQMVLFNIYDDWLDRISSYTAFSRLTLLLRALKTNEESAKMILLSDPTITIKSYHLWPSFTDEQWITIESQMRDLILTEYGRKYNVNISALTQTEIKDIILGQNIKAPSVKRQKMAELEAARSEKQNDEEAAGASTVMKTKTINAQGEEIVVVASADYESQTFSSKNEWRKSAIANTLLYLRLKNIYVSADDFVEEQNVYVLPKNLLKKFIEISDVKIQVAAFIYGMSAKDHPKVKEIKTVVLVPQLGHVGSVQISNIPDIGDLPDTEGLELLGWIHTQTEELKFMAASEVATHSKLFADKKRDCIDISIFSTPGSVSLSAYNLTDEGYQWGEENKDIMNVLSEGFEPTFSTHAQLLLSDRITGNFIIPSGNVWNYTFMGTAFNQEGDYNFKYGIPLEFYNEMHRPVHFLQFSELAGDEELEAEQIDVFS
B2: GST-tagged Prp8-CTF with the RP mutation R2388K (domain or fragment)
chain: B1 chain with R583K
B3: GST-tagged Prp8-CTF with the RP mutation F2382L (domain or fragment)
chain: B1 chain with F577L

Molecular target: full-length Brr2 with C-terminal calmodulin-binding domain (S. cerevisiae, UniProt P32639 1-2163)
Assay: pull-down

full-length Brr2 with C-terminal calmodulin-binding domain, sequence (P32639 whole entry, the tested form may be a part): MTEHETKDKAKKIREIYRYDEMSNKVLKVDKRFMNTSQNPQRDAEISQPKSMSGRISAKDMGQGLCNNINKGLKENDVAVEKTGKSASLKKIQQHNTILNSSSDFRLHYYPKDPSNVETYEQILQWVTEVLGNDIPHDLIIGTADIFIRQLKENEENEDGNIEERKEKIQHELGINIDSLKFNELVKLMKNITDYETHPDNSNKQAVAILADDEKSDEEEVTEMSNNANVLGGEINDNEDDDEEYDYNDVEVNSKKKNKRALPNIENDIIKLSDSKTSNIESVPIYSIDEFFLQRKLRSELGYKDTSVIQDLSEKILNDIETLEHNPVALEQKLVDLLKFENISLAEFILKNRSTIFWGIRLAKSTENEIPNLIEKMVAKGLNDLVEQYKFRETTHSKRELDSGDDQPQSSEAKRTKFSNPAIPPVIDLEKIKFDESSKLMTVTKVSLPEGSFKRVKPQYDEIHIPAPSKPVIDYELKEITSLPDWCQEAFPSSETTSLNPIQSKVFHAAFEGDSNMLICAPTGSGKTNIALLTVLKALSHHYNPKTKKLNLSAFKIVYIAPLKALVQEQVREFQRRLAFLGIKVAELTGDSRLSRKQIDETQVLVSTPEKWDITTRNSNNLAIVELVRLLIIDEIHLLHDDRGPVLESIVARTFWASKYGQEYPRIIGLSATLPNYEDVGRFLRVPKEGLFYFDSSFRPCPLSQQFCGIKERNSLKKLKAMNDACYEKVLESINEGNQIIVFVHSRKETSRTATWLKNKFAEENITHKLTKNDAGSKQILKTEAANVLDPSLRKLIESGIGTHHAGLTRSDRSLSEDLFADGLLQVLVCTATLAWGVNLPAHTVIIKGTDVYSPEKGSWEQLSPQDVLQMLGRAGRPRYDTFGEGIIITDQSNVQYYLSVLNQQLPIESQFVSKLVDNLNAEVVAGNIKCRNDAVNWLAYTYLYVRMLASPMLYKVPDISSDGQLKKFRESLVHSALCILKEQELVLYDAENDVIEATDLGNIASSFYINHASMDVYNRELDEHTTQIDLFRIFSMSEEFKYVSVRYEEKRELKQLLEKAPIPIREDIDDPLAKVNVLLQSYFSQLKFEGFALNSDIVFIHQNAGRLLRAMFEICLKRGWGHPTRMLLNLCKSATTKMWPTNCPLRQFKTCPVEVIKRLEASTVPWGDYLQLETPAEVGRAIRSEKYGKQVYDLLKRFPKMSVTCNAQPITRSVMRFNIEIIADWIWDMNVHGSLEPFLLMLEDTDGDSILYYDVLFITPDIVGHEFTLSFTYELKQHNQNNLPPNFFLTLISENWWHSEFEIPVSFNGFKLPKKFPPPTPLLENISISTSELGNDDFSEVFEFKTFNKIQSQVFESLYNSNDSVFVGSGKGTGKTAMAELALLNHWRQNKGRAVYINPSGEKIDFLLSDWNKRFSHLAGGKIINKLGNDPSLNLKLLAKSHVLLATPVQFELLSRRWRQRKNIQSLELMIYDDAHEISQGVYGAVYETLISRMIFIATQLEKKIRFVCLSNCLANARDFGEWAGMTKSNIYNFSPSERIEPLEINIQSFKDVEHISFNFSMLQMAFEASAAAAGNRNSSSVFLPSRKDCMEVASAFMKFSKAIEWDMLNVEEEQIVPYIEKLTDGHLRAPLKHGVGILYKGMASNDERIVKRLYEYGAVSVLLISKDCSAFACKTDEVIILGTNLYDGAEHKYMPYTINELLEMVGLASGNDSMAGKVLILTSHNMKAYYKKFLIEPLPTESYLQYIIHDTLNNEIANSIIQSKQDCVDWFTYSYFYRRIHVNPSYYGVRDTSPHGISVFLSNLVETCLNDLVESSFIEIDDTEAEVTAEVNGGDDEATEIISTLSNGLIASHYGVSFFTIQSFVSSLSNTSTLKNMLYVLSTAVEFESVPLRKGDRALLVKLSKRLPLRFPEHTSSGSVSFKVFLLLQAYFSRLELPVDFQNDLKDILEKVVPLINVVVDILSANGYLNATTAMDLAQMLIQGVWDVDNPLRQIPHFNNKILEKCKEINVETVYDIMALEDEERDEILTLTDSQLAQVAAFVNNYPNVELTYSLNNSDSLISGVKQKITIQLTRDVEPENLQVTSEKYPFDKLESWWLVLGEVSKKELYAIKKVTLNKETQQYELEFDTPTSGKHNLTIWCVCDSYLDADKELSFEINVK

Binder | binding result
B1 | binds
B2 | binds
B3 | binds
